Data taken from patent US20070053902 (published 2007).
Where two headings read alike, the source gives them in different places.

T1: human integrin alphavbeta3 (human, UniProt P06756)
T1 chain 1: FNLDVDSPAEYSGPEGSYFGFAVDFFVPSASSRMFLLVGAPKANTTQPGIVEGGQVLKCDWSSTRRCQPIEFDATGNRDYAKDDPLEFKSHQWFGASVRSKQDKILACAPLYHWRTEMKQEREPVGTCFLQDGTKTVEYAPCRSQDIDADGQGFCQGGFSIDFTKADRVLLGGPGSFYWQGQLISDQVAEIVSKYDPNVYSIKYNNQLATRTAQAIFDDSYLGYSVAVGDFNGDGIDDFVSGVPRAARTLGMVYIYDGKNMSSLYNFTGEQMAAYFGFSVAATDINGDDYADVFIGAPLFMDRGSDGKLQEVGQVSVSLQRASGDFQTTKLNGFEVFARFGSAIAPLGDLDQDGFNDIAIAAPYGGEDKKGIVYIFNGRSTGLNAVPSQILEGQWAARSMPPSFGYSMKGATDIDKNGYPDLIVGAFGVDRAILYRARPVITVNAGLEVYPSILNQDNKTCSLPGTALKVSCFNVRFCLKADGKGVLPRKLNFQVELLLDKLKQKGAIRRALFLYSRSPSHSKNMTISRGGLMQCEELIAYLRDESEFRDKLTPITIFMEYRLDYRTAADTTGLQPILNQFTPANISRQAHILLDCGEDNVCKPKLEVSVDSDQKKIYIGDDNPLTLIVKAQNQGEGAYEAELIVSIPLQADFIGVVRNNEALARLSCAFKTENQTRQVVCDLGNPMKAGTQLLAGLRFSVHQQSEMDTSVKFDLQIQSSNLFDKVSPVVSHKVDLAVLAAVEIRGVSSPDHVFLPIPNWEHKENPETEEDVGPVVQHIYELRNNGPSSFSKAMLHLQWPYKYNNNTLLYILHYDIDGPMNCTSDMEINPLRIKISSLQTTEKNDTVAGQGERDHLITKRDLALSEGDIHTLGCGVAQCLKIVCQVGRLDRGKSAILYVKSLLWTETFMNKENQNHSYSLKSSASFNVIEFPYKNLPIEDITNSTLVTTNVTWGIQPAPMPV
T1 chain 2: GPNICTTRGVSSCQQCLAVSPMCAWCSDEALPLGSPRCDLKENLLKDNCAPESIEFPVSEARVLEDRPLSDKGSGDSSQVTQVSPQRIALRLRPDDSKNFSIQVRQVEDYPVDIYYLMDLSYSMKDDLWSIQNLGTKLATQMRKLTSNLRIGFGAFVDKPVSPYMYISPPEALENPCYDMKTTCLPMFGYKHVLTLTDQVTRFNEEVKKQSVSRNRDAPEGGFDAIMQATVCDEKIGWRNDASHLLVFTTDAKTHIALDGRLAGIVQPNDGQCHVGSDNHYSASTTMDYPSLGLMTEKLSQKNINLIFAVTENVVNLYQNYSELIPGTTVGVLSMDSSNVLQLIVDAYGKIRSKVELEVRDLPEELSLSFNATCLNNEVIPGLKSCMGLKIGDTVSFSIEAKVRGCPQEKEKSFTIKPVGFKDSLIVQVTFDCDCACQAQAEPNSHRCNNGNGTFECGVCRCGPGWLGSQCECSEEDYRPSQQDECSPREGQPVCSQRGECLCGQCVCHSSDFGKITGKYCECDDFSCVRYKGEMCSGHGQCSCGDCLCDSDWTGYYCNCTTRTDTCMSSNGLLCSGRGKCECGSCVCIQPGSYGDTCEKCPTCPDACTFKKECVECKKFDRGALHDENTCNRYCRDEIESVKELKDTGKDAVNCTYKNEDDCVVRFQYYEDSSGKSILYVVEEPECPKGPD


Assays:
[1] = target: T1, human integrin alphavbeta3; assay: SPR
[2] = target: T1, human integrin alphavbeta3; assay: SPR

| Binder | Kd [1] | Kd [2] |
| --- | --- | --- |
| murine D12 (antibody, V domains shown) VH: EIQLQQSGPEVVKPGASVKVSCKASGYAFTSYNMYWVKQSHGKSLEWIGYIDPYNGDTFYNQKFKGKATLTVDKSSSTAYMHLNSLTSEDSAVFYCARQNYGSFAYWGQGTLVTVSA VL: DIVLTQSPATLSVTPGDSVSLSCRASQSISNHLHWYQQRSHESPRLLIKYASQSISGIPSRFRGSGSGTDFTLNINILETEDFGMYFCQQSNSWPFTFGSGTNLEIKR | 0.53 nM | 1.3 nM |
| HZD12-IgG4 (antibody, V domains shown) VH: QVQLVQSGAEVKKPGASVKVSCKASGYAFTSYNMYWVRQAPGQGLEWIGYIDPYNGDTFYNQKFKGKATLTVDKSTSTAYMELSSLRSEDTAVYYCARQNYGSFAYWGQGTLVTVSS VL: DIVLTQSPGTLSLSPGERATLSCRASQSISNHLHWYQQKPGQAPRLLIKYASQSISGIPSRFSGSGSGTDFTLTISRLEPEDFAVYYCQQSNSWPFTFGQGTKVEIK | – | 1.1 nM |
| HZD12-IgG1 (antibody, V domains shown) VH: QVQLVQSGAEVKKPGASVKVSCKASGYAFTSYNMYWVRQAPGQGLEWIGYIDPYNGDTFYNQKFKGKATLTVDKSTSTAYMELSSLRSEDTAVYYCARQNYGSFAYWGQGTLVTVSS VL: DIVLTQSPGTLSLSPGERATLSCRASQSISNHLHWYQQKPGQAPRLLIKYASQSISGIPSRFSGSGSGTDFTLTISRLEPEDFAVYYCQQSNSWPFTFGQGTKVEIK | – | 1 nM |
